Reference: article PMC6850650, “Superfolder mTurquoise2^ox optimized for the bacterial periplasm allows high efficiency in vivo FRET of cell division antibiotic targets” (Molecular Microbiology, 2019)
Where a chain is given by its changes, count along the chain named. In names and notes the source's numbering stands.

B1: FtsB-sfTq2^ox (natural protein, E. coli, UniProt P0A6S5 1-103, looked up)
chain: MGKLTLLLLAILVWLQYSLWFGKNGIHDYTRVNDDVAAQQATNAKLKARNDQLFAEIDDLNGGQEALEERARNELSMTRPGETFYRLVPDASKRAQSAGQNNR
notes: cell division protein FtsB of E. coli; The end of the FP is read from the printed name FtsB-sfTq2^ox; source: E. coli, from plasmid, in the cells (FP in the periplasm); not shown: sfTq2^ox, C-terminal, kept
B2: FtsL-sfTq2^ox (natural protein, E. coli, UniProt P0AEN4 1-121, looked up)
chain: MISRVTEALSKVKGSMGSHERHALPGVIGDDLLRFGKLPLCLFICIILTAVTVVTTAHHTRLLTAQREQLVLERDALDIEWRNLILEENALGDHSRVERIATEKLQMQHVDPSQENIVVQK
notes: cell division protein FtsL of E. coli; The end of the FP is read from the printed name; source: E. coli, from plasmid, in the cells (FP in the periplasm); not shown: sfTq2^ox, C-terminal, kept
B3: PBP5 (D,D-carboxypeptidase) fused to sfTq2 (donor copy) or mNeongreen (acceptor copy) (enzyme, E. coli, UniProt P0AEB2 30-403, looked up)
chain: DDLNIKTMIPGVPQIDAESYILIDYNSGKVLAEQNADVRRDPASLTKMMTSYVIGQAMKAGKFKETDLVTIGNDAWATGNPVFKGSSLMFLKPGMQVPVSQLIRGINLQSGNDACVAMADFAAGSQDAFVGLMNSYVNALGLKNTHFQTVHGLDADGQYSSARDMALIGQALIRDVPNEYSIYKEKEFTFNGIRQLNRNGLLWDNSLNVDGIKTGHTDKAGYNLVASATEGQMRLISAVMGGRTFKGREAESKKLLTWGFRFFETVNPLKVGKEFASEPVWFGDSDRASLGVDKDVYLTIPRGRMKDLKASYVLNSSELHAPLQKNQVVGTINFQLDGKTIEQRPLVVLQEIPEGNFFGKIIDYIKLMFHHWFG
notes: PBP5 (D,D-carboxypeptidase, encoded by dacA) of E. coli; Self-association measured between two differently fused copies (sfTq2-PBP5 and mNG-PBP5); PBP5's own signal peptide is probably replaced by that of DsbA (surmised); also called sfTq2-PBP5; DsbA^ss-FP-PBP5; source: E. coli CS109 ΔdacA, from plasmid, in the periplasm of the cells; not shown: sfTq2 (on the donor copy), N-terminal, kept; …
B4: PBP5^S44G (inactive mutant) fused to sfTq2 (donor copy) or mNeongreen (acceptor copy) (enzyme, E. coli, UniProt P0AEB2 30-403, looked up)
chain: B3 chain with S44G
notes: PBP5 (D,D-carboxypeptidase, encoded by dacA) of E. coli with S44G; Self-association measured between two differently fused copies; source: E. coli CS109 ΔdacA, from plasmid, in the periplasm of the cells; not shown: sfTq2 (on the donor copy), N-terminal, kept; mNeongreen (on the acceptor copy), N-terminal, kept

Tests used:
Assay in all cases: FRET or BRET; in vivo in the periplasm of E. coli; donor sfTq2 or sfTq2^ox, acceptor mNG, each fused to one partner; emission spectra taken with a fluorometer and unmixed, EfA from sensitised emission; PBP5 dimerisation in CS109 ΔdacA, controls in LMC500 and CS109 ΔdacA
[1] = biological target: T1, FtsL-mNG (E. coli, UniProt P0AEN4 1-121); details: partners not purified
T1 construct: cell division protein FtsL of E. coli; The end of the FP is read from the printed name FtsL-mNG; source: E. coli, from plasmid, in the cells (FP in the periplasm); not shown: mNeongreen, C-terminal, kept
T1 sequence (looked up): B2 chain

[2] = biological target: T2, FtsB-mNG (E. coli, UniProt P0A6S5 1-103); details: partners not purified
T2 construct: cell division protein FtsB of E. coli; The end of the FP is read from the printed name; also called wild-type FtsB-mNG; source: E. coli, from plasmid, in the cells (FP in the periplasm); not shown: mNeongreen, C-terminal, kept
T2 sequence (looked up): B1 chain

[3] = biological target: the molecule itself

Binder	EfA (FRET efficiency) [3]	other results
B1		EfA (FRET efficiency) [1]: 19.2%
B2		EfA (FRET efficiency) [2]: 15.6%
B3	4.2%	
B4	8.8%	
